Data from patent publication US6828106B2, “Methods and compositions using coiled binding partners” (Cyclacel Limited, priority 1999, dated 2004).

Legend:
TEV protease [1] = biological target: T1, TEV protease (Tobacco etch virus, UniProt P04517); assay: TEV protease FP assay with homodimer-forming reporter peptide; assay type: biochemical; conditions: substrate: fluorescein/biotin-labeled reporter peptide homodimer; FIG. 10; read-out: Km of TEV protease by FP analysis
T1 construct: Proteolytic cleavage was initiated by the addition of TEV protease (20U, Gibco Life Technologies); histidine tag; purchased Gibco Life Technologies
Protocol: (§1) TEV protease activity and inhibition of TEV protease activity was determined by using a peptide capable of forming a homodimer, wherein homodimer formation is decreased following TEV protease cleavage of the peptide, according to the following method.
For FP analysis the reporter peptide (sequence recited above) was labeled with fluorescein or with biotin. The labeled peptides were incubated at a total peptide concentration of 6 μM (6:1 ratio, biotin:F) in 50 mM Tris, pH 8, 0.5 mM EDTA, 0.1 mg/ml BSA and 1 mM DTT at 30° C. for 5 minutes in a total volume of 100 μl. Proteolytic cleavage was initiated by the addition of TEV protease (20U), and monitored during the reaction time course by measuring the polarization of fluorescein (excitation 485 nm, emission 520 nm) over time. Initial rates of change of fluorescein polarization were determined for the linear portion of the reaction.
(§2) The activity of the TEV protease inhibitor iodacetamide was determined by FRET or FP assays performed as described above in the absence of iodacetamide or in the presence of 0.05-100 mM iodacetamide added prior to the addition of TEV protease. The results of these experiments are presented in FIG. 9 (FRET assay) and FIG. 11 (FP assay).

TEV protease [2] = biological target: T1, TEV protease; assay: TEV protease FRET assay with homodimer-forming reporter peptide; assay type: biochemical; conditions: substrate: fluorescein/rhodamine-labeled reporter peptide homodimer; FIG. 8; read-out: Km of TEV protease by FRET analysis
Protocol: as §1
For FRET analysis the reporter peptide (KGR MRCLEDR VENLYSQ SYHLENE VARLRRL VGELAAK) (SEQ ID NO: 32) was labeled with fluorescein or rhodamine. The labeled peptides were incubated at a total peptide concentration of 6 μM (6:1 ratio, R:F) in 50 mM Tris pH 8, and 0.5 mM EDTA, and 1 mM DTT at 30° C. for 15 minutes in a total volume of 100 μl. Proteolytic cleavage was initiated by the addition of TEV protease (20U, Gibco Life Technologies), and monitored during the time course of the reaction by measuring the emission of fluorescein (excitation 485 nm, emission 520 nm) over time. Initial rates of change of fluorescein emission were determined for the linear portion of the reaction.
as §2

B1: TEV protease: Tobacco Etch Virus protease, Gibco Life Technologies (protein)
chain: GESLFKGPRDYNPISSTICHLTNESDGHTTSLYGIGFGPFIITNKHLFRRNNGTLLVQSLHGVFKVKNTTTLQQHLIDGRDMIIIRMPKDFPPFPQKLKFREPQREERICLVTTNFQTKSMSSMVSDTSCTFPSSDGIFWKHWIQTKDGQCGSPLVSTRDGFIVGIHSASNFTNTNNYFTSVPKNFMELLTNQEAQQWVSGWRLNADSVLWGGHKVFMSKPEEPFQPVKEATQLMNELVYSQ
- Km (TEV protease [1]): 36 µM
- Km (TEV protease [2]): 36 µM
